This series concerns the molecule itself. Description: ESI-IMS-MS of colpeptin1 in 100 mM ammonium acetate buffer (self-association).

B1: Colpeptin1 (P2) (peptide)
peptide: RGLGLALVRRPRGLGLALVRR
Turning to B1, the binding result is given as “binds”.
